Test results taken from patent publication US20130039933A1 (UNIVERSITY OF MIAMI, published 2013).

B1: Full length DAD1 (defender against apoptotic cell death) fused to the GAL4 activation domain (other, human, UniProt P61803 1-113, looked up, not shown: large carriers)
chain: MSASVVSVISRFLEEYLSSTPQRLKLLDAYLLYILLTGALQFGYCLLVGTFPFNSFLSGFISCVGSFILAVCLRIQINPQNKADFQGISPERAFADFLFASTILHLVVMNFVG
notes: Yeast two-hybrid prey; also called DAD I
B2: control vector (AD) (other, yeast, UniProt P04386 768-881, looked up)
chain: ANFNQSGNIADSSLSFTFTNSSNGPNLITTQTNSQALSQPIASSNVHDNFMNNEITASKIDDGNNSKPLSPGWTDQTAYNAFGITTGMFNTTTMDDVYNYLFDDEDTPPNPKKE
notes: Yeast two-hybrid negative control

Legend:
[1] = biological target: T1, BD-hSTING-C (carboxyl region of STING, amino acids 173-379, fused to the binding domain of yeast GAL4) (yeast; human, UniProt P04386 1-147); assay: yeast two-hybrid screen
T1 construct: Yeast two-hybrid bait; also called pGBK-T7-hSTING-C; pGBKT7-STING C-terminal

[2] = biological target: T1, BD-hSTING-C (carboxyl region of STING, …); assay: yeast two-hybrid, high stringency plates (-Trp, -Leu, -Ade, -His)

Binder	binding result [1]	binding result [2]
B1	binds	
B2		no binding
